Laboratory results taken from publication PMC7321842.

Biological target: microtubules (MTs) of porcine brain Tubulin (porcine) (UniProt P02550)
Experiment: turbidimetry

Chain of LEM2 N-terminal domain (LEM2NTD; AA:1–208) (Q8NC56 1-208): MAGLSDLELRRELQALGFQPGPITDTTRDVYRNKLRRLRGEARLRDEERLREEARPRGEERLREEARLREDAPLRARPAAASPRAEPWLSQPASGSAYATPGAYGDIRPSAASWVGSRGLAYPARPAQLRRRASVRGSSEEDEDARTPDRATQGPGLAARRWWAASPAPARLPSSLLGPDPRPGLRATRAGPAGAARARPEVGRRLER

Row | K (apparent) (half-maximal concentration of MT bundling by light scattering) [µM] | half max (half-maximal concentration of MT bundling by light scattering) [µM] | Substance
1 | 1.3 |  | LEM2 N-terminal domain (LEM2NTD; AA:1–208) (from UniProt Q8NC56 1-208) (domain or fragment)
2 |  | 2.82 | LEM2_(Mim1(S82D, S90D, S96D, Y98D, T100D, Y104D)) (from UniProt Q8NC56 1-208) (domain or fragment)
3 |  | 8.44 | LEM2_(Mim2(Y122D, S134D, S138D, S139D, T147D, S166D, S174D, S175D)) (from UniProt Q8NC56 1-208) (domain or fragment)
